From article PMC11915502

Biological target: His6-HppX3 (Escherichia coli 3R (chicken), …, UniProt A0A0F7IE22 1-151)
Experiment: EMSA

B1: Bio-PactX (actX promoter probe) (dsDNA)
DNA 1: AAGTAACTAGCGGTACTAGAGTCGACCTGCAGGCATATAAAATAAGCGCA
DNA 2: TGCGCTTATTTTATATGCCTGCAGGTCGACTCTAGTACCGCTAGTTACTT
B1: binds.
